The results in this text go back to patent US20110306125A1, “Protein Expression Methods” (Ironwood Pharmaceuticals, Inc., priority 2008, published 2011).

For this test, the target named is T1, GC-C receptor (Homo sapiens, UniProt P25092).
T1 construct: production of intracellular cGMP using cultured human colon carcinoma T84 cells; endogenous in cells; host or cells: T84 human colon carcinoma cells
Description: production of intracellular cGMP in cultured human colon carcinoma T84 cells (cGMP ELISA). Type of test: cell-based. The settings on record: intracellular cGMP by ELISA kit, compared with synthetic human uroguanylin, FIG. 8. The method, then:
The ability of polypeptides, variant polypeptides and other compounds to bind to and activate the intestinal GC-C receptor can be tested using the T84 human colon carcinoma cell line (American Type Culture Collection (Bethesda, Md.).
Briefly, cells are grown to confluency in 24-well culture plates with a 1:1 mixture of Ham's F12 medium and Dulbecco's modified Eagle's medium (DMEM), supplemented with 5% fetal calf serum and are used at between passages 54 and 60.
Monolayers of T84 cells in 24-well plates are washed twice with 1 ml/well DMEM, then incubated at 37° C. for 10 min with 0.45 ml DMEM containing 1 mM isobutylmethylxanthine (IBMX), a cyclic nucleotide phosphodiesterase inhibitor. Test polypeptides (50Tl) are then added and incubated for 30 minutes at 37° C. The media is aspirated and the reaction is terminated by the addition of ice cold 0.5 ml of 0.1N HCl. […] Cyclic GMP is measured by EIA according to procedures outlined in the Cayman Chemical Cyclic GMP EIA kit.
The activity of the mature peptide was evaluated by the production of intracellular cGMP using cultured human colon carcinoma T84 cells, as described by Currie et al. (Pro. Natl. Acad. Sci. USA., 89:947-951, 1992). cGMP levels were subsequently measured using a cGMP ELISA kit (Cayman Chemical, Ann Arbor, Mich.) according to the manufacturer's protocol. […]
For orientation: In an ELISA, binding on a coated surface is turned into a signal by an enzyme label.

T1 sequence (P25092 24-1073): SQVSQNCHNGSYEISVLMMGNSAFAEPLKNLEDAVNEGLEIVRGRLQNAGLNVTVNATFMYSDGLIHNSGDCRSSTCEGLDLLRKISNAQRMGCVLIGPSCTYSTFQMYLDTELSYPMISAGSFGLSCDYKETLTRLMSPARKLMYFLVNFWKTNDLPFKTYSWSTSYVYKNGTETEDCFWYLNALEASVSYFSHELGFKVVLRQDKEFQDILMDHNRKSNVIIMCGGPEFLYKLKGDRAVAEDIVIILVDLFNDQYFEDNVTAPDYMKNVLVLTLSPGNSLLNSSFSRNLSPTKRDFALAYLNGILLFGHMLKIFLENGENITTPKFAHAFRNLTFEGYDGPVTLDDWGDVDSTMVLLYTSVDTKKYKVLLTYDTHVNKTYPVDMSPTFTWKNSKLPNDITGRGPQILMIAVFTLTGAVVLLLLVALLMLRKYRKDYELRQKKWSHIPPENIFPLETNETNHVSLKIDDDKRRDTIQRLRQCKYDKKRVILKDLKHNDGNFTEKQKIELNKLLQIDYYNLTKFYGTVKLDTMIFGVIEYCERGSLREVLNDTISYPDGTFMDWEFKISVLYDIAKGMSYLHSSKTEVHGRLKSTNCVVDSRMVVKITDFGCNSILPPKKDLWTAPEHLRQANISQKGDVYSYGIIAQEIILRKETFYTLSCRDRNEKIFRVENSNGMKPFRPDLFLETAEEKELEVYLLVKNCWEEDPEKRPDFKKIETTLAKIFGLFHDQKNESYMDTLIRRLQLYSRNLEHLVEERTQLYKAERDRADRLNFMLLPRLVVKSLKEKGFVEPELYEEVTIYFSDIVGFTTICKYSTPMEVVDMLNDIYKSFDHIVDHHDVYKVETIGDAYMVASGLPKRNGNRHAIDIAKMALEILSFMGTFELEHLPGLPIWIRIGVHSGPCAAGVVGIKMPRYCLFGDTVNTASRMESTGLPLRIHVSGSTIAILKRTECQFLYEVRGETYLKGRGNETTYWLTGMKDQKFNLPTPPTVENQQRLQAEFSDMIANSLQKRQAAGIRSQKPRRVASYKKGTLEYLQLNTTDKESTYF

With NDDCELCVNVACTGCL [mature UGN peptide], the cGMP levels produced result was “comparable to those levels produced using synthetic human UGN”.
